From patent US20240261333A1 (published 2024)

T1: ARG1 (UniProt P05089 1-322)
T1 construct: also called NP_000036.2 (+1)
T1 sequence (looked up): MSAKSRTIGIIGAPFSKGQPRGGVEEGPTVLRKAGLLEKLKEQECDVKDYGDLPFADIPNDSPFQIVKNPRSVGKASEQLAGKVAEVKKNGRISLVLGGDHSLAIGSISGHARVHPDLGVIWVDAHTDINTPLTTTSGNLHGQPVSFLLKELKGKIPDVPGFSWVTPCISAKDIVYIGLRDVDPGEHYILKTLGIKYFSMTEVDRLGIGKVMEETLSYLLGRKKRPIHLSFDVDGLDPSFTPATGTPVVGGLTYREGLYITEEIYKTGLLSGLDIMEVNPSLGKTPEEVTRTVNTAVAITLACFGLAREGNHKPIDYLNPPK

T2: POF1B (UniProt Q8WVV4-1 1-595, limits assumed)
T2 construct: also called NP_001294869.1 (+2)
T2 sequence (looked up): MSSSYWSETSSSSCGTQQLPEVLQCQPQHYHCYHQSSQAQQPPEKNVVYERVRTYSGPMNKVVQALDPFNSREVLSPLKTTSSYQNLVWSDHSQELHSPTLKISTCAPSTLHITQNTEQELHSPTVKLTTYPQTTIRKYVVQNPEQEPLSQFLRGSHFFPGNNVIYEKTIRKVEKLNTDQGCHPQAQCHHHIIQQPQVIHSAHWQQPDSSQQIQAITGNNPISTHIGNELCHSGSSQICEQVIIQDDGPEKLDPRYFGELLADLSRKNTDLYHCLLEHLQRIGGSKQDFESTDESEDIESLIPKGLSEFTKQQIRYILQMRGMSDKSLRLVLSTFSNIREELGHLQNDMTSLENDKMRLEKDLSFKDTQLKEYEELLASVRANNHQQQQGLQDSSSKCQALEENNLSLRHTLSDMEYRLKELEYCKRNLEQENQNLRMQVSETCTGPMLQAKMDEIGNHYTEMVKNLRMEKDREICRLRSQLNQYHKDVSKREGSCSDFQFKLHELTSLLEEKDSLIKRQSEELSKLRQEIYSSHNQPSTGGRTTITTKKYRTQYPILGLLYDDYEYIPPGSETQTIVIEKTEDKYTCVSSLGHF

T3: TMEM59 (UniProt Q9BXS4 36-323, limits assumed)
T3 construct: also called NP_001291972.1
T3 sequence (looked up): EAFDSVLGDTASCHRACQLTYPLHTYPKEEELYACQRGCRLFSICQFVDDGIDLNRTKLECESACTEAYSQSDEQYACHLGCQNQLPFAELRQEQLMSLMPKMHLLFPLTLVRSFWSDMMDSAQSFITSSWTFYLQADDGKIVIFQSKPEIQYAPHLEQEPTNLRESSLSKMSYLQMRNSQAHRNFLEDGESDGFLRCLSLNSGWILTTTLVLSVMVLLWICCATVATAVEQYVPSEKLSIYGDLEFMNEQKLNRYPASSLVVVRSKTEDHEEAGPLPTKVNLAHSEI

T4: CDSN (UniProt Q15517 33-529, limits assumed)
T4 construct: also called NP_001255.4
T4 sequence (looked up): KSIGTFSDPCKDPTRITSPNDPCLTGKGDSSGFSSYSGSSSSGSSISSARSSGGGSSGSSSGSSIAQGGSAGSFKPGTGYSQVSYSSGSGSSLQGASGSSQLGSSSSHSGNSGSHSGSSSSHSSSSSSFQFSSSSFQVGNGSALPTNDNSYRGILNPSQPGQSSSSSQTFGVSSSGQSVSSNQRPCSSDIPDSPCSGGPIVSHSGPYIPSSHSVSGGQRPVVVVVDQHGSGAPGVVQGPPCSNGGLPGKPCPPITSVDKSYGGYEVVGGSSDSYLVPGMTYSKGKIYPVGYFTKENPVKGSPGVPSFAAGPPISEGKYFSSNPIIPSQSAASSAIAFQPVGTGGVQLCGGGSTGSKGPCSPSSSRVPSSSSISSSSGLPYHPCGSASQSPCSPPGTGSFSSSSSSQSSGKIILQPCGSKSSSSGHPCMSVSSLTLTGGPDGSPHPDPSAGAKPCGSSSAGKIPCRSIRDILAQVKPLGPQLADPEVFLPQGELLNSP

T5: EMD (UniProt P50402 1-254)
T5 construct: also called NP_000108.1
T5 sequence (looked up): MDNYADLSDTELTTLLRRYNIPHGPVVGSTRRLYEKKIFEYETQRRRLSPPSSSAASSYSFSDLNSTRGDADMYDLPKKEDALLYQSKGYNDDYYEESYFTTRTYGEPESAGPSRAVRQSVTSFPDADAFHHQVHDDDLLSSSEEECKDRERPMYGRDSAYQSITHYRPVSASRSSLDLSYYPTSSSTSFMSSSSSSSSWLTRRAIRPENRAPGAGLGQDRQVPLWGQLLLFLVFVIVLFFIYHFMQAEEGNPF

T6: CD276, endogenous in A375 melanoma cells (human, UniProt Q5ZPR3 29-534, poly-LacNAc glycosylation added by B3GNT2 (sites not given))
T6 construct: whole, on cells; On fixed A375 cells in flow cytometry; In the co-IP it comes from the lysate of these cells; also called B7H3
T6 sequence (looked up): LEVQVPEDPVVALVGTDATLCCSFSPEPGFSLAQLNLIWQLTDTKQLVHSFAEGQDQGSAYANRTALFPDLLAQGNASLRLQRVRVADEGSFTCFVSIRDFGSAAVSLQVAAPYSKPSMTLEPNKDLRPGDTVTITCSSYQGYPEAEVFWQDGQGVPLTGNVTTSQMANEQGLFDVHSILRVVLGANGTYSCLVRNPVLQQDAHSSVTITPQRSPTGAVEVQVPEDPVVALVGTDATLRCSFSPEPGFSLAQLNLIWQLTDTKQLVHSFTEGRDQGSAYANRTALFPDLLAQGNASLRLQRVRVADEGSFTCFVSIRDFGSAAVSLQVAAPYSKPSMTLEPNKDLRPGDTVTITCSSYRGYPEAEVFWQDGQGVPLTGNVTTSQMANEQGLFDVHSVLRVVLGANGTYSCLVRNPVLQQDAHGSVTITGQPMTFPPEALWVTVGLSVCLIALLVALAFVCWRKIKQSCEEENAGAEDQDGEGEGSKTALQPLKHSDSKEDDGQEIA

B1: C-terminal FLAG tagged B3GNT2 (enzyme, human, UniProt Q9NY97 1-397, looked up)
chain: MSVGRRRIKLLGILMMANVFIYFIMEVSKSSSQEKNGKGEVIIPKEKFWKISTPPEAYWNREQEKLNRQYNPILSMLTNQTGEAGRLSNISHLNYCEPDLRVTSVVTGFNNLPDRFKDFLLYLRCRNYSLLIDQPDKCAKKPFLLLAIKSLTPHFARRQAIRESWGQESNAGNQTVVRVFLLGQTPPEDNHPDLSDMLKFESEKHQDILMWNYRDTFFNLSLKEVLFLRWVSTSCPDTEFVFKGDDDVFVNTHHILNYLNSLSKTKAKDLFIGDVIHNAGPHRDKKLKYYIPEVVYSGLYPPYAGGGGFLYSGHLALRLYHITDQVHLYPIDDVYTGMCLQKLGLVPEKHKGFRTFDIEEKNKNNICSYVDLMLVHSRKPQEMIDIWSQLQSAHLKC
notes: Bait of the co-IP; pulled down with mouse anti-FLAG from cell lysate; also called C-FLAG B3GNT2; C-term flag; not shown: FLAG tag at the C-terminus
B2: TREML2 recombinant Fc chimera protein (R&D Systems 3259-TL-050) (Fc fusion, UniProt Q5T2D2 19-268, looked up)
chain: GPSADSVYTKVRLLEGETLSVQCSYKGYKNRVEGKVWCKIRKKKCEPGFARVWVKGPRYLLQDDAQAKVVNITMVALKLQDSGRYWCMRNTSGILYPLMGFQLDVSPAPQTERNIPFTHLDNILKSGTVTTGQAPTSGPDAPFTTGVMVFTPGLITLPRLLASTRPASKTGYSFTATSTTSQGPRRTMGSQTVTASPSNARDSSAGPESISTKSGDLSTRSPTTGLCLTSRSLLNRLPSMPSIRHQDVYS
notes: Bought reagent; also called TLT2; Fc part of the bought chimera not given

Legend:
ARG1 = molecular target: T1, ARG1; assay: co-IP, anti-FLAG, C-FLAG B3GNT2 cell lysate, mass spectrometry
Description: (§1) Cells were plated in 10-cm cell culture dishes and grown to 60-80% confluency. For each condition, two biological replicates were harvested for co-IP. Cells were washed with PBS and 4 mL of lysis buffer (20 mM HEPES, 1% Triton X-100, 150 mM NaCl, 1 mM EDTA, and 10% glycerol) containing protease inhibitor cocktail was added. Cells were scraped and lysate was incubated at 4° C. under rotary agitation for 1 h. Lysate was centrifuged at 14,000×g for 10 min at 4° C. Supernatant was transferred to a new tube and an aliquot was taken as the input. […] For Western blots, 10 μg/mL Chicken Anti-FLAG (Aves labs ET-DY100) and IgY control (R&D Systems AB-101-C) antibodies were biotinylated (Thermo Fisher Scientific 90407) and added to the respective conditions. Lysates with antibodies were incubated at 4° C. under rotary agitation overnight. For each mL of lysate, 50 μL of Pierce Protein A/G Magnetic Beads (Mass spectrometry; Thermo Fisher Scientific 88803) or Pierce Streptavidin Magnetic Beads (Western blot; Thermo Fisher Scientific 88817) was washed twice with lysis buffer. Lysates with antibodies were added to the beads and incubated at 4° C. under rotary agitation for 4 h. Beads were washed with lysis buffer 3 times and resuspended in lysis buffer for storage.
(§2) Magnetic beads were resuspended in 100 mM Tris pH 7.8, reduced, alkylated and digested with trypsin at 37° ° C. overnight. This solution was subjected to solid phase extraction to concentrate the peptides and remove unwanted reagents followed by injection onto a Shimadzu HPLC with fraction collector. Eight fractions were collected and after concentration were injected on a Waters NanoAcquity HPLC equipped with a self-packed Aeris 3 μm C18 analytical column 0.075 mm by 20 cm, (Phenomenex). Peptides were eluted using standard reverse-phase gradients. The effluent from the column was analyzed using a Thermo Orbitrap Elite mass spectrometer (nanospray configuration) operated in a data dependent manner for 54 minutes. The resulting fragmentation spectra were correlated against the known database using Proteome Discover 1.4 (Thermo Fisher Scientific).

DEFA3 = molecular target: T7, DEFA3 (UniProt P59666 65-94, limits assumed); assay: as above
T7 construct: also called NP_005208.1 (+1)
Description: as §1, §2

POF1B = molecular target: T2, POF1B; assay: as above
Description: as §1, §2

TMEM59 = molecular target: T3, TMEM59; assay: as above
Description: as §1, §2

CDSN = molecular target: T4, CDSN; assay: as above
Description: as §1, §2

EMD = molecular target: T5, EMD; assay: as above
Description: as §1, §2

RPS18 = RPS18 (UniProt P62269 2-152); assay: as above
Description: as §1, §2

RPS13 = RPS13 (UniProt P62277 2-151); assay: as above
Description: as §1, §2

RPS23 = RPS23 (UniProt P62266 2-143); assay: as above
Description: as §1, §2

CFL1 = molecular target: T8, CFL1 (UniProt P23528 2-166); assay: as above
T8 construct: also called NP_005498.1
Description: as §1, §2

RPS2 = RPS2 (UniProt P15880 2-293); assay: as above
Description: as §1, §2

[1] = molecular target: T6, CD276, endogenous in A375 melanoma cells; assay: flow cytometry of TREML2 Fc chimera on fixed A375 cells with CD276 knocked down by CRISPR
Description: Per condition, 5×10⁵ cells were pelleted at 200×g for 5 min and washed once with PBS. Cell were fixed in 4% Formaldehyde in PBS at 4° C. for 10 mins. […] Cells were incubated at 4° C. for 1 h. […] Cells stained with Tomato Lectin were not incubated with additional secondary antibodies. Cells were incubated at 4 °C for 30 mins. Cells were washed twice with PBS. For each sample, 10,000 cells were analyzed on a CytoFLEX Flow Cytometer (Beckman Coulter) and quantified with FlowJo (FlowJo). For each experiment, median fluorescence values for 3 biological replicates were compared to determine statistical significance.

T8 sequence (P23528 2-166 limits assumed): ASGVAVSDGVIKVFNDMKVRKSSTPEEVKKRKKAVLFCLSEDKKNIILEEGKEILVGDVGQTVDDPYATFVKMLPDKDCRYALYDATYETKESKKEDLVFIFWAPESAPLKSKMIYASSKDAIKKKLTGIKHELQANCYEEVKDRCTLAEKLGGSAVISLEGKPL
T7 sequence (P59666 65-94 limits assumed): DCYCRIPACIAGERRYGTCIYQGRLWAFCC

Row | Binder | co-IP mass spectrometry count (ARG1) | co-IP mass spectrometry count (DEFA3) | co-IP mass spectrometry count (POF1B) | co-IP mass spectrometry count (TMEM59) | co-IP mass spectrometry count (CDSN) | co-IP mass spectrometry count (EMD) | co-IP mass spectrometry count (RPS18) | co-IP mass spectrometry count (RPS13) | co-IP mass spectrometry count (RPS23) | co-IP mass spectrometry count (CFL1) | co-IP mass spectrometry count (RPS2) | binding result [1]
1 | B1 | 6 | 8 | 0 | 0 | 0 | 2 | 18 | 4 | 16 | 6 | 24 | 
2 | B2 |  |  |  |  |  |  |  |  |  |  |  | no binding (tested: 25 µg/mL)
